Results reported in US20120329995A1.

Biological target: human CD3 (human) (UniProt P07766)
Experiment: flow cytometry, serially diluted antibody on Jurkat cells, PE goat anti-mouse IgG

Chain of human CD3 (human) (P07766 23-207): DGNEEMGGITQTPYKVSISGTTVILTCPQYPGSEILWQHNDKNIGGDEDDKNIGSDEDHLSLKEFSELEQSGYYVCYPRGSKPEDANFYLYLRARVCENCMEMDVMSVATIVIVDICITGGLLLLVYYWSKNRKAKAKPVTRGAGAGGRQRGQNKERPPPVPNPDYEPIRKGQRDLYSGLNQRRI

## OKT3 antibody (mouse anti-human CD3, recombinant, made in 293T cells from pME-wtOKT3 HC and pME-wtOKT3 LC)
  antibody concentration giving comparable binding: 0.4 ng/mL
